Results as given in patent US20130189284A1 (TECHNION RESEARCH AND DEVELOPMENT FOUNDATION, published 2013).

B1: G3H8 Fab (Anti HLA-DR4/GAD555-567 Fab) (Fab, V domains shown)
VH: QVQLVQSGAEVKKPGASVKVSCKASGYTFTTYGISWVRQAPGQGLEWMGWISAYNGHTNYAQMLQGRVTMTTDTSTSTAYMELRGLRSDDTAVYYCAREAYASYGSGSYWTDYWGQGTLVTVSS
VL: ETTLTQSPATLSVSPGERVTLSCRASQSVGSNLAWYQQKFGQAPRLLIYDASTRATGIPARFSGSGSGTEFTLTISRLEPEDFAVYYCHQYGSSPRTFGQGTKVDIKR
notes: also called Fab G3H8; G3H8 TCRL Fab
B2: G1H12 Fab (Anti HLA-DR4/GAD555-567 Fab) (Fab, V domains shown)
VH: QVQLVQSGAEVKKPGASVKVSCKASGYTFTSYGISWVRQAPGQGLEWMGGIIPIFGTANYAQKFQGRVTITADKSTSTAYMELSSLRSEDTAVYYCARDPQSYYYDSSGFDYWGQGTLVTVSS
VL: QSVLTQPPSVSAAPGQKVTISCSGSSSNIGNNYVSWYQQLPGTAPKLLIYDNNKRPSGIPDRFSGSKSGTSATLGITGLQTGDEADYYCGTWDSSLSVWVFGGGTKLTVLG

Experiments:
[1] = target: DR4/HA307-319 complex presented on cells (human, UniProt P01903 26-254; P01911 30-266); assay: flow cytometry on peptide-loaded Preiss cells
[2] = target: HA307-319 peptide ([…]), alone; assay: ELISA, immobilized peptide

Binder | binding result [1] | binding result [2]
B1 | no binding (tested: 1-5 µg of specific Fab per 10^6 cells) | no binding (tested: 5 µg/ml soluble purified Fab)
B2 | no binding (tested: 1-5 µg of specific Fab per 10^6 cells) | no binding (tested: 5 µg/ml soluble purified Fab)
